Target: 天然TSLP
Assay: cell-based or functional assay

Substance: Tezepelumab (antibody)
- 抑制天然TSLP诱导的SW756-STAT5-Luciferase报告基因细胞STAT5磷酸化活性的IC50: 1.45 ng/mL
